Primed or numbered codes have the meaning given here. FITC′ = fluorescein isothiocyanate
B1: RCD1-RST(499-572) (domain or fragment, Arabidopsis thaliana, UniProt Q8RY59 499-572, looked up)
chain: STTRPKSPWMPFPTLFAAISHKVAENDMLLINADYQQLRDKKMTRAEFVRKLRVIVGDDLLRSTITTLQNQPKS
notes: also called AtRCD1-RST; αα-hub RCD1-RST; source: E. coli BL21(DE3), purified (Source 15S cation exchange, Superdex 75 SEC)
B2: FITC-DREB2A(246-272) R266G (peptide, UniProt O82132 246-272, looked up)
peptide: {FITC′}-NDVDQSHLDSSDMFDVDELLGDLNGDD-NH2
modifications: also: acetylation stated, site not given here
notes: also called fluorescently labeled DREB2A(244-272)-R266G; DREB2A-R266G; source: synthetic peptide, bought: TAG Copenhagen A/S (>98% purity)
B3: FITC-DREB2A(246-272) D267L (peptide, UniProt O82132 246-272, looked up)
peptide: {FITC′}-NDVDQSHLDSSDMFDVDELLRLLNGDD-NH2
modifications: also: acetylation stated, site not given here
notes: also called fluorescently labeled DREB2A(244-272)-D267L; DREB2A-D267L; source: synthetic peptide, bought: TAG Copenhagen A/S (>98% purity)
B4: FITC-DREB2A(246-272) R266A (peptide, UniProt O82132 246-272, looked up)
peptide: {FITC′}-NDVDQSHLDSSDMFDVDELLADLNGDD-NH2
modifications: also: acetylation stated, site not given here
notes: also called DREB2A-R266A; DREB2A(244-272) variant R266A; source: synthetic peptide, bought: TAG Copenhagen A/S (>98% purity)
B5: FITC-DREB2A(246-272) WT (peptide, UniProt O82132 246-272, looked up)
peptide: {FITC′}-NDVDQSHLDSSDMFDVDELLRDLNGDD-NH2
modifications: also: acetylation stated, site not given here
notes: also called fluorescently labeled DREB2A(244-272)-WT; source: synthetic peptide, bought: TAG Copenhagen A/S (>98% purity)
B6: DREB2A(244-272)-WT (peptide, UniProt O82132 244-272, looked up)
chain: WPNDVDQSHLDSSDMFDVDELLRDLNGDD
notes: Expressed as GST-tagged peptide; 13C,15N-labelled for NMR, unlabelled for ITC; also called DREB2A-WT; source: E. coli BL21(DE3), purified (Glutathione Sepharose 4B, reversed phase Vydac C18)
B7: DREB2A(244-272)-D267L (peptide, UniProt O82132 244-272, looked up)
chain: WPNDVDQSHLDSSDMFDVDELLRLLNGDD
notes: Expressed as GST-tagged peptide; 13C,15N-labelled for NMR, unlabelled for ITC; also called DREB2A-D267L; source: E. coli BL21(DE3), purified (Glutathione Sepharose 4B, reversed phase Vydac C18)
B8: FITC-DREB2A(246-272) D267A (peptide, UniProt O82132 246-272, looked up)
peptide: {FITC′}-NDVDQSHLDSSDMFDVDELLRALNGDD-NH2
modifications: also: acetylation stated, site not given here
notes: also called DREB2A-D267A; DREB2A(244-272) variant D267A; source: synthetic peptide, bought: TAG Copenhagen A/S (>98% purity)
B9: DREB2A(244-272)-R266G (peptide, UniProt O82132 244-272, looked up)
chain: WPNDVDQSHLDSSDMFDVDELLGDLNGDD
notes: Expressed as GST-tagged peptide; 13C,15N-labelled for NMR, unlabelled for ITC; also called DREB2A-R266G; source: E. coli BL21(DE3), purified (Glutathione Sepharose 4B, reversed phase Vydac C18)

What was measured:
[1] = target: DREB2A 244-272 (Arabidopsis thaliana) (UniProt O82132); assay: stopped-flow kinetics; details: cited from earlier work
DREB2A(244-272)-WT = target: B6; assay: ITC; 9-12 µM DREB2A(244-272) peptide in the cell, 92-100 µM RCD1-RST(499-572) in the syringe; 25 °C, 50 mM HEPES pH 7.4, 300 mM NaCl; one set of sites model; n = 3; details: both partners purified
RCD1-RST(499-572) [2] = target: B1; assay: stopped-flow fluorescence spectroscopy; 0.1 µM FITC-DREB2A peptide mixed with 1-6 µM RCD1-RST(499-572) (kon); preformed complex 1:0.1 µM displaced with 5-60 µM unlabelled DREB2A(244-272) (koff); Kd from the rate constants; 10 °C, 50 mM HEPES pH 7.4, 100 mM NaCl; details: both partners purified
RCD1-RST(499-572) [3] = target: B1; assay: stopped-flow fluorescence spectroscopy; association and displacement (dissociation) kinetics; 10 °C, 50 mM HEPES pH 7.4, 200 mM NaCl; details: both partners purified
RCD1-RST(499-572) [4] = target: B1; assay: stopped-flow fluorescence spectroscopy; 0.1 µM FITC-DREB2A peptide mixed with 1-6 µM RCD1-RST(499-572) (kon); preformed complex 1:0.1 µM displaced with 5-60 µM unlabelled DREB2A(244-272) (koff); Kd from the rate constants; 10 °C, 50 mM HEPES pH 7.4, 100 mM NaCl; details: both partners purified; remark: listed apart in the source
RCD1-RST(499-572) [5] = target: B1; assay: stopped-flow fluorescence spectroscopy; association kinetics; 10 °C, 50 mM HEPES pH 7.4, 150 mM NaCl; details: both partners purified
RCD1-RST(499-572) [6] = target: B1; assay: stopped-flow fluorescence spectroscopy; association and displacement (dissociation) kinetics; 10 °C, 50 mM HEPES pH 7.4, 500 mM NaCl; details: both partners purified
RCD1-RST(499-572) [7] = target: B1; assay: stopped-flow fluorescence spectroscopy; association and displacement (dissociation) kinetics; 10 °C, 50 mM HEPES pH 7.4, 300 mM NaCl; details: both partners purified
RCD1-RST(499-572) [8] = target: B1; assay: stopped-flow fluorescence spectroscopy; association kinetics; 10 °C, 50 mM HEPES pH 7.4, 50 mM NaCl; details: both partners purified
RCD1-RST(499-572) [9] = target: B1; assay: stopped-flow fluorescence spectroscopy; association and displacement (dissociation) kinetics; 10 °C, 50 mM HEPES pH 7.4, 800 mM NaCl; details: both partners purified
RCD1-RST(499-572) [10] = target: B1; assay: ITC; 9-12 µM DREB2A(244-272) peptide in the cell, 92-100 µM RCD1-RST(499-572) in the syringe; 25 °C, 50 mM HEPES pH 7.4, 300 mM NaCl; one set of sites model; n = 3; details: both partners purified

Q: Which Kd [1] does the source give for RCD1 499-572 (from UniProt Q8RY59) here?
A: 0.8 nM

Q: For B1, which dH (DREB2A(244-272)-WT) is on record?
A: -16.3 kcal/mol

Q: And the “stoichiometry N” value (DREB2A(244-272)-WT)?
A: 0.84

Q: Which Kd (RCD1-RST(499-572) [2]) does the source give for B2 here?
A: 3 nM

Q: What about the koff (RCD1-RST(499-572) [2]) of the same molecule?
A: 0.7 s⁻¹

Q: What about the kon (RCD1-RST(499-572) [2]) of the same molecule?
A: 2.3e+08 M⁻¹ s⁻¹

Q: What about the kon (RCD1-RST(499-572) [3]) of the same molecule?
A: 1.2e+08 M⁻¹ s⁻¹

Q: And the kon (RCD1-RST(499-572) [4])?
A: 2.06e+08 M⁻¹ s⁻¹

Q: And the kon (RCD1-RST(499-572) [5])?
A: 1.75e+08 M⁻¹ s⁻¹

Q: What about the kon (RCD1-RST(499-572) [6]) of the same molecule?
A: 2.1e+07 M⁻¹ s⁻¹

Q: And the kon (RCD1-RST(499-572) [7])?
A: 5.59e+07 M⁻¹ s⁻¹

Q: What about the kon (RCD1-RST(499-572) [8]) of the same molecule?
A: 4.13e+08 M⁻¹ s⁻¹

Q: And the koff (RCD1-RST(499-572) [9])?
A: 5.29 s⁻¹

Q: What about the kon (RCD1-RST(499-572) [9]) of the same molecule?
A: 1.06e+07 M⁻¹ s⁻¹

Q: For B3, which Kd (RCD1-RST(499-572) [2]) is on record?
A: 0.13 nM

Q: What about the koff (RCD1-RST(499-572) [2]) of the same molecule?
A: 0.03 s⁻¹

Q: What about the kon (RCD1-RST(499-572) [2]) of the same molecule?
A: 2.35e+08 M⁻¹ s⁻¹

Q: What about the kon (RCD1-RST(499-572) [3]) of the same molecule?
A: 1.42e+08 M⁻¹ s⁻¹

Q: What about the kon (RCD1-RST(499-572) [4]) of the same molecule?
A: 1.78e+08 M⁻¹ s⁻¹

Q: What about the kon (RCD1-RST(499-572) [5]) of the same molecule?
A: 1.49e+08 M⁻¹ s⁻¹

Q: And the kon (RCD1-RST(499-572) [6])?
A: 4.5e+07 M⁻¹ s⁻¹

Q: And the kon (RCD1-RST(499-572) [7])?
A: 8.1e+07 M⁻¹ s⁻¹

Q: And the koff (RCD1-RST(499-572) [9])?
A: 0.223 s⁻¹

Q: And the kon (RCD1-RST(499-572) [9])?
A: 2.2e+07 M⁻¹ s⁻¹

Q: Which results are given for B4?
A: Kd (RCD1-RST(499-572) [2]): 1.5 nM; koff (RCD1-RST(499-572) [2]): 0.383 s⁻¹; kon (RCD1-RST(499-572) [2]): 2.46e+08 M⁻¹ s⁻¹

Q: Which koff (RCD1-RST(499-572) [3]) does the source give for B5 here?
A: 0.4 s⁻¹

Q: And the kon (RCD1-RST(499-572) [3])?
A: 4.5e+07 M⁻¹ s⁻¹

Q: What about the koff (RCD1-RST(499-572) [4]) of the same molecule?
A: 0.18 s⁻¹

Q: What about the kon (RCD1-RST(499-572) [4]) of the same molecule?
A: 2.45e+08 M⁻¹ s⁻¹

Q: What about the kon (RCD1-RST(499-572) [5]) of the same molecule?
A: 1.18e+08 M⁻¹ s⁻¹

Q: And the koff (RCD1-RST(499-572) [6])?
A: 0.94 s⁻¹

Q: What about the kon (RCD1-RST(499-572) [6]) of the same molecule?
A: 2.3e+07 M⁻¹ s⁻¹

Q: What about the koff (RCD1-RST(499-572) [7]) of the same molecule?
A: 0.53 s⁻¹

Q: And the kon (RCD1-RST(499-572) [7])?
A: 3.6e+07 M⁻¹ s⁻¹

Q: What about the kon (RCD1-RST(499-572) [8]) of the same molecule?
A: 3.35e+08 M⁻¹ s⁻¹

Q: And the koff (RCD1-RST(499-572) [9])?
A: 1.78 s⁻¹

Q: And the kon (RCD1-RST(499-572) [9])?
A: 8e+06 M⁻¹ s⁻¹

Q: For B6, which Kd (RCD1-RST(499-572) [10]) is on record?
A: 84 nM

Q: For B7, which Kd (RCD1-RST(499-572) [10]) is on record?
A: 66 nM

Q: With B8 as the molecule, how does the Kd (RCD1-RST(499-572) [2]) read?
A: 0.32 nM

Q: What about the koff (RCD1-RST(499-572) [2]) of the same molecule?
A: 0.07 s⁻¹

Q: And the kon (RCD1-RST(499-572) [2])?
A: 2.22e+08 M⁻¹ s⁻¹

Q: For B9, which Kd (RCD1-RST(499-572) [10]) is on record?
A: 369 nM

Source: article PMC9849366, “Evolutionary fine-tuning of residual helix structure in disordered proteins manifests in complex structure and lifetime” (Communications Biology, 2023)
